The nature of this series: yeast display, Sf9 membrane polyspecificity reagent, FACS + sequencing; frameworks hold sequencing errors. The method in brief:
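Using colony PCR, genes from sorted yeast display clones were amplified, then sequenced on MiSeq at 2 × 250 and filtered by CDR length. The clones had been stained with 10% biotinylated, detergent-solubilized Sf9 membrane reagent for 1 hour at 4 °C and sorted by FACS into low and high (top ~1%) gates on anti-HA and streptavidin fluorescence. Polyreactivity labels come from the gate of origin.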
Regarding “QVQLVESGGGLVQAGGSLRLSCAASGRSLGWYAMGWYRKAPGKERELVAAISSGVRTNYADSVKGRFTISRDNAKNTVYLQMNSLKPEDTAVYYCAAATYNQDYSYDYWGQGTQVTVSS”, the “polyreactivity (PSR sort gate)” value is listed as “low polyreactivity”.

For “QVQLVESGGGLVQAGGSLRLSCAASGLTFRYNAMGWYRQAPGKERELVARISRNGGRTYYADSVKGRFTISRDNAKNTVYLQMNSLKPEDTAVYYCNVVYFVTTSPGYDYWGQGTQVTVSS”, the “polyreactivity (PSR sort gate)” value was “high polyreactivity”.

In the case of “QVQLVESGGGLVQAGGSLRLSCAASGSIFQWYAMGWYRQAPGKERELVAAITISGGSTHYADSVKGRFTISRDNAKNTVYLQMNSLKPEDTAVYYCATPRYPSYDYWGQGTQVTVSS”, the “polyreactivity (PSR sort gate)” value is “low polyreactivity”.

Consider “QVQLVESGGGLVQAGGSLRLSCAASGLIFRHYVMGWYRQAPGKETELVAAITSRGGTTYYADSVKGRFTISRDNAKNTVYIQMNSLKPEDTAVYYCNAVDIYPTRYEYDYWGQGTQVTVSS”, for which the “polyreactivity (PSR sort gate)” value is “high polyreactivity”.

Consider “QVQLVESGGGLVQAGGSLRLSCASSGIIFYAYAMGWYRQAPGKERELVAAINFNTGRTYYADSVKGRFTISRDNAKNTVYLQMNSLKPEDTAVYYCAKSSYRNSGERDYWGQGTQVTVSS”, for which the “polyreactivity (PSR sort gate)” value was “high polyreactivity”.

On to “QVQLVESGGGLVQAGGSLRLSCAASGRTFYNYAMGWYRQAHGKERELVAAIDWGSDSTYYADYVKGRFTISRDNANNTVYLQMNRLKPEDTAVYYCAAYLVSVNSRTYDYWGQGTQVTVSS”, for which the “polyreactivity (PSR sort gate)” value was “low polyreactivity”.

For the sequence “QVQLVESGGGLVQAGGSLRLSCAASGSILEIYAMGWYRPAPGKEREFVASISWDVSSTYYADSVKGRFTISRDNAKNTVYLQMNSLKPEDTAVYYCATSLVWGLYDWYYDLSAAFDYWGQGTQVTVSS”, the “polyreactivity (PSR sort gate)” value is “low polyreactivity”.

As to “QVQLVESGGGLVQAAGSLRVSCAASGSTFSWNPMGWSIQAPGKERELVAASTSGGRTYYADSVKGRFTISRDNAKNTVYLQMNSLKPADTAVYYCAAYATIYRDMGYWGHGTQVTVSS”, the “polyreactivity (PSR sort gate)” value is on record as “high polyreactivity”.

On to “QVQLVESGGGLVQAGGSLRLSCAASGSIFAGNTMGWYRQAPGKEREFVASIRSSSGSTYYADSVKGRFTISRDNAKNTVYLQMNSLKPEDTAVYYCAARVYHYREFWVNYWGHGTQVTVSS”, for which the “polyreactivity (PSR sort gate)” value is reported as “high polyreactivity”.

Turning to “QVQLVESGGGLVQERGSLRLSCADSGFIFWYYAMGWDRQAPGKERELVAAISWSGDSTYYADSVKGRFTISRDNANNTVYLQMKSLKPEYTAVYYCAVYEELDVFYNGYDYWGQGTQVTVSS”, the “polyreactivity (PSR sort gate)” value was “high polyreactivity”.

With “QVQLVESGGGLVQAGGSLRLSCAASGSTFTYNAMGWYRQAPGKERELVAAITGRGGSTYADSVKGRFTISRDNAKNTVYLQMNSLKPEDTAVYYCAARRPYGYRWHTSVPSLDYWGQGTQVTVSS”, the “polyreactivity (PSR sort gate)” value was “low polyreactivity”.

As for “QVQLVESGGGLVQAGGSLRLSCAASGFTIVYYAMGWYRQAPGKERELVAAITWSGGNTYYADSVKWRITISRDNAKNTVYLHMNSLKPEDNAVYYCAASPRGRRTTVGYPRRPFDYWGLGTQVTVSS”, the “polyreactivity (PSR sort gate)” value was “high polyreactivity”.

Take “QVQLLETGGGLVQAGGSLRLSCAASGSTFTIYAMGLYRQAPGKEMELVAVITRGSTNYADSVKGRFTISRDNAKNTVYLQMYSLKPEDSAVYYCNARRYGKVVRSRYNYWGQGTQVTVSS”: the “polyreactivity (PSR sort gate)” value was “high polyreactivity”.

“QVQLLESGGGLVQAGGSHRLSCAASGRIFGSNAMGWYRQAPGKERELVAAITRGGSTNYADSVKGRFTISLDNAKNTVYLQMNSLKPEDTAVYYCAVRWYRKYNYWGQGTQVTVSS”: the “polyreactivity (PSR sort gate)” value is on record as “high polyreactivity”.

Turning to “QVQLVESGGGLVQAGGSLRLSCAASGRTFVYNAMGWYRQAPGKERELVAAISSSGGSTRYADSVKGRFTISRDNAKNTVYLQMNSLKPEDTAVYYCNRLRYSNRYDTWGQGTQVTVSS”, the “polyreactivity (PSR sort gate)” value is given as “high polyreactivity”.

As to “QVQLVESGGGLDQAGGSLRLSCAASGSIFPLYAKGWYRQAPGKERELVADITVSGGSTYYADSVKGRFTISRDYAKNTVYLQMNSLKPEDTAVYYCAKDNGPWFAYDYWGQGTHVTVSS”, the “polyreactivity (PSR sort gate)” value is “low polyreactivity”.

As to “QVQLLESGGGLVQAGGSLRLSCAASGSTFQAYAMGWYRQAPGKERELVAAISVSDGITYYADSVKGRFTISRDNAKNTVYLQMNSLKPEDTAVYYCAAEISLSRSDRIESYDYWGQGTQVTVSS”, the “polyreactivity (PSR sort gate)” value is recorded as “low polyreactivity”.

Regarding “QDKLVDSGGGLVQAGGSLRLSCAASGFIFGKYTMVWYRQAPGKERELVAAINRRGGSTYYADSVKGRFTISRDNAKNTVYLQMNSLKPEDTAVYYCAKDGYSLDRYYWGQGTQVTVSS”, the “polyreactivity (PSR sort gate)” value is “high polyreactivity”.

For “QVLLQESGGGLVQAGGSLRLGCAASGTISPAYYMGRYHQAPGQEREFVAAITYGTNTYYADSVKGRFTISRDNAKNTVYLQMNSLKPEDTAVYYCSATAGYNGAHDYWGQGTQVTVSS”, the “polyreactivity (PSR sort gate)” value was “low polyreactivity”.

“QVQLLESVGGLVQAGGSLRISCAASGIIFKSYAMGWYRQAPGKERELVAAISSGGSTYYVDSVKGRFTISRDNAKNTVYLQMNSLKPEDTAVYYCAAYGKYQGYGHWGQGTQVTVSS”: the “polyreactivity (PSR sort gate)” value is recorded as “high polyreactivity”.

As for “QVQLVESGGGLVQAGGSLRLSCAASGSIFLRYAMGWYRQAPGKERELVASITSGGSRYYADSVKGRFTISRDNAKNTVYFQMNSLKPEDTAVYYCNALPYRYRRYDYWGQGTQVTVSS”, the “polyreactivity (PSR sort gate)” value is “low polyreactivity”.

“QVQLVESGGGLVQAGGSLRLSCAASGFTFKYYAMGWYRQAPGKERELVATITSGGRTNYADSVKGRFTISRDNAKNTVYLQMNSLKPEDTAVYYCATPYSAYWQNERDYWGQGTQVTVSS”: the “polyreactivity (PSR sort gate)” value is “high polyreactivity”.

On to “QVQLVESGGGLVQAGGSLRLSCAASGSTLDGYGMRWYRQAPGKERELVAVITIGGGRTYYADSVKGRFTISRDNAKNTVYLQMNSLKPEDTAVSYCAAKGWRRYYIGDYWGQGTQVTVSS”, for which the “polyreactivity (PSR sort gate)” value is given as “high polyreactivity”.

Take “QVQLVESGGRLVQAGGSLRLSCAASGIIFWVNAMGWYRQSTGKESELVAAISGRGGRTYYVDSVKGRFTISRDNAKNTVYLQMNSLKPEDTAVYYCNTVPYPAYLARMDYWGQGTQGTVSS”: the “polyreactivity (PSR sort gate)” value is given as “high polyreactivity”.

Regarding “QVQLVESGGGLVQAGGSLRLTCAASGSTFSYYAMGWYRQPPRKERELVAVITWSGASTYYADSVKGRFTISRDNAKNTVYLQMNSLKPEDTAVYYCAADKYLSYDYWGQGTQVSVSS”, the “polyreactivity (PSR sort gate)” value was “low polyreactivity”.

With “QVQLVESGGGLVQAGGSLRLSCAASGIIFVENAMGWYRQAPGKERDLVASGDSTYADSVKGRFTIARDNAKNTVYLQMNSLKPEDNAVYYCNTDGYPRLYIYDYWGQGTQVTVSS”, the “polyreactivity (PSR sort gate)” value is listed as “low polyreactivity”.

For “QVQLVESGGGLVQAGGSLRLSCAASGLTLGSYAMGWYRQAPGKERELVAAISRRSGRTYYADSVKGRFTISRDNAKNTVYLKMNSLKPEDTAVDYCNRGYTAQVYTEFDYWGQGTQVTVSS”, the “polyreactivity (PSR sort gate)” value is listed as “low polyreactivity”.

As to “QVQLVESGGGLVQAGGSLRLSCAASGSNIATYAMGWYRQAPWKETELVAAISSTGRTYYADSVKGRFTISRDNAKNTVYLQMTRLKPVDTAVYYCNTVRYRSRYGMDYWGQGTQVTVSS”, the “polyreactivity (PSR sort gate)” value is “high polyreactivity”.

Turning to “QVQLVESGGGLVQAGGSLRLSCAASGRIFGYYAMGWYRQAPGKERELVAAIRSSGGSTYYADSVKGRFTISRDNAKNTVYLQMNSLKPEDTAVYYCNKGAAWRPFFGPYYNYEYWGQGTQVTVSS”, the “polyreactivity (PSR sort gate)” value was “high polyreactivity”.

“QVQLVESGGGLVQAGGSLRLSCAASGSIFPVYAMGWYRQAPGKQRELVAAITTAGRTYYADSVKGRFTISRDNAKNTVYLQMNSLKPEDTAVYYCNARSRKGLTVDGGYWGQGTQVTVSS”: the “polyreactivity (PSR sort gate)” value was “high polyreactivity”.

Take “QVQLVESGGGLVQAGGSLRLSCAASGRTFVVYTMGWYRQAPGKERELVAAISWRGGTTYYADSVKGRFTISRDNAKNTVYLQMNSLKPEDTAVYYCAARVVYYYRERYYWGQGTQVTVSS”: the “polyreactivity (PSR sort gate)” value is recorded as “high polyreactivity”.

“QVQLEESGGGLVHAGGSLRLICAASGSTFSTYAMRWYRQAPGKERELVARITRGGSTNYADSVKGRFTISRDNAMNTVYLQMNCLKPDDTAVYYFSAGIRSGRKYDYWGQGTQVTVSS”: the “polyreactivity (PSR sort gate)” value is reported as “low polyreactivity”.

With “QVQLVETGGGLVQAGGSLRLSCAASGFIFSAYAMGWYRQAPGKEREFVAAISKRGGSTYYADSVKGRFTISRENAKNTVYLQMNTLKPDDTAVYYCAAPYSRYLVGYGYWGQGTQVTVSS”, the “polyreactivity (PSR sort gate)” value is “high polyreactivity”.

For the sequence “QVQLVESGGGLVQAGGSLRVSCAASGFIIEVNSMAWYRQAPGKERELVARIDWSGGSTYYADSVKGRFTISRDNAKNTVFLQMNSLIPEDTAVYYCAVVASRSHTETPEYDYWGQGTQVTVSS”, the “polyreactivity (PSR sort gate)” value is “low polyreactivity”.

In the case of “QVQLVESGGGLVQAGGSHRLSCAASGRTFQENGMGWYRQAPGKERELVATISQRGTSTYYADSVKGRFTISRDNAKNTVYLQMNSLKPEDTAVYYCARRRVYRWYTGDYWGQGTQVTVSS”, the “polyreactivity (PSR sort gate)” value was “low polyreactivity”.

As to “QVQLVESGGGLVQAGGSLRLISAASGSIFVGNAMGWYRQSPGKERELVAAISRSGGRTYYADSVKGRFTISRDNAKNTVYLQMNSLKPEDTAVYYCNAYGWEQRQMDSWGQGTQVTVSS”, the “polyreactivity (PSR sort gate)” value is listed as “high polyreactivity”.

As for “QVQLVESGGGLVQAGGSLRLSCDASGITFYSYAMGWYRQAPGKEREFVAAITRGGGITSYADSVKGRFTISRDNAKNTVYLQMNSLKPEDTAVYYCAVYTYHYGRSTYYKYDYWGQGTQVTVSS”, the “polyreactivity (PSR sort gate)” value is “high polyreactivity”.

On to “QVQLVESGGGLVQAGGSLRLSCAASGSIFRRYAMGWYRQAPGKERELVAAISRSGSSTYADSVKGRFTISRDNEKNTVYLQMNSLKPEDTEVYYCNRVRLNTEGFDYWGQGTQVTVSS”, for which the “polyreactivity (PSR sort gate)” value is recorded as “low polyreactivity”.

In the case of “QVQLVESGGRLVQAGGSLRLSCAASGGTLTSNPMGWYRPAPGKERELVAAINKSGGSTYYADSVKGRFTISRDNAKNTVYLQMNSLKPEDTAVYYCAARFYYWVSGGLVKYNYWGQGTQVTVSS”, the “polyreactivity (PSR sort gate)” value is “high polyreactivity”.

With “QVQLVESGGGLVQAGGSLRLSCAASGRIFVFNAMGWYRQAPGKEREFVAVISTGGGSTYYADSVKGRFTISRDNAKNTVYLQMNSLKPEDTAVYYCAAEWRVYYATYGYWGQGTQVTVSS”, the “polyreactivity (PSR sort gate)” value is “high polyreactivity”.

For the sequence “QVQLVESGGGLVQAGGSLRLSCAASGRIFQYNAMGWYRQAPGKERELVAAISNSDSTNYADSVKGRFTISRDNAKNTDYLQLNRVKPEDTAVYYCARRYYFYRWVIPDYDYWGQGTQVTVSS”, the “polyreactivity (PSR sort gate)” value is listed as “low polyreactivity”.

Values taken from the nanobody polyreactivity screen of Harvey et al. (2022).
